Data published in patent US8071348B2, “Protein tyrosine phosphatase substrate-trapping double mutant and uses thereof” (Albert Einstein College of Medicine of Yeshiva University, priority 2002, dated 2011).
Where two headings read alike, the source gives them in different places. [ ]: non-standard residue; d: D form. F2Pmp = N[C@@H](Cc1ccc(C(F)(F)P(=O)(O)O)cc1)C(=O)O

T1: EGFR 988-998 peptide DADEpYLIPQQG
T1 chain: DADEXLIPQQG

T2: EGFR^988-998 peptide, DADEpYLIPQQG (Homo sapiens, UniProt P18031, D181A)
T2 construct: The catalytic domain of PTP1B (residues 1 to 321) was used for in vitro study; made in house; host or cells: E. coli (pT7-7 plasmids)
T2 sequence (P18031 1-321 D181A): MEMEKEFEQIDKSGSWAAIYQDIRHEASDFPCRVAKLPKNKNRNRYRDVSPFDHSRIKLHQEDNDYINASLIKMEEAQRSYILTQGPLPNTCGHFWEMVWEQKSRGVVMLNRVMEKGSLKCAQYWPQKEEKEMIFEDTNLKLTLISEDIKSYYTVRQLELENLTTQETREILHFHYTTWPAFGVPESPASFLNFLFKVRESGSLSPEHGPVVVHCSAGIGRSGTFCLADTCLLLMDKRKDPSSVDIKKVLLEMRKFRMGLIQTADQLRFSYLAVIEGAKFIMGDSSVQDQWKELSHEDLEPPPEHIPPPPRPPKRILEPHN

T3: Ac-Asp-Ala-Asp-Glu-F2Pmp-Leu-NH2
T3 construct: Synthetic hexapeptide printed in three-letter code; also called F2Pmp-containing peptide; non-hydrolyzable substrate analog
T3 peptide: Ac-DADE[F2Pmp]L-NH2


Experiments:
[1] = molecular target: T1, EGFR 988-998 peptide DADEpYLIPQQG
[2] = Kinetic constants for PTP1B-catalyzed hydrolysis of pNPP; format: biochemical; settings: pNPP as substrate
Excerpt: (§1) The catalytic domain of PTP1B (residues 1 to 321) was used for in vitro study. PTP1B mutants, C215S, D181A, and Q262A, were described previously (9, 25, 26). PTP1B double mutants, D181A/C215S and C215S/Q262A, were generated by PCR reactions, according to the standard procedure of the Quick-Change™ site-directed mutagenesis kit (Stratagene), using pT7-7/PTP1B/C215S as a template. PTP1B double mutants, D181A/C215E and D181A/Q262A, were generated by similar PCR procedures, using pT7-7/PTP1B/D181A as a template. The recombinant wild-type and mutant PTP1Bs were expressed in E. coli, and purified to homogeneity as described (25, 27). Protein concentration was determined from absorbance measurement at 280 nm, using an absorbance coefficient of 1.24 for 1 mg/ml PTP1B.
PTP activity was assayed at 25° C. and pH 7.0, in a reaction mixture (0.2 ml) containing pNPP concentrations ranging from 0.2 to 5 Km. The following buffered solution was used for activity measurements: pH 7.0, 50 mM 3,3-dimethylglutarate, 1 mM EDTA; the ionic strength was 0.15 M, as adjusted by addition of NaCl. Initial rate measurements for the enzyme-catalyzed hydrolysis of pNPP were conducted as previously described (26). Michaelis-Menten kinetic parameters were determined from a direct fit of the data to the Michaelis-Menten equation, using the nonlinear regression program, KINETASYST (Intellikinetics, State College, Pa.).

[3] = molecular target: T2, EGFR^988-998 peptide, DADEpYLIPQQG; experiment: Kinetic constants for PTP1B-catalyzed hydrolysis of pTyr-containing EGFR988-998 peptide; format: biochemical; settings: EGFR988-998 peptide as substrate
Excerpt: as §1
(§2) All assays were performed at 25° C. in buffer (pH 7.0, ionic strength=0.15 M) containing 50 mM 3,3-dimethylglutarate and 1 mM EDTA. A continuous spectrophotometric assay, previously described (28), was employed to determine kcat and Km for the pTyr-containing peptides. The dephosphorylation reaction was monitored by either an increase in absorbance at 282 nm, or an increase in fluorescence at 305 nm. Fluorometric and absorbance determinations were performed on a Perkin-Elmer LS50B fluorometer and a Perkin-Elmer Lambda 14 spectrophotometer, respectively. The instruments were equipped with a water-jacketed cell holder, permitting maintenance of the reaction mixture at the desired temperature (25° C.).

[4] = test system: EGFR^988-998 peptide, DADEpYLIPQQG; experiment: as above; format: biochemical; settings: EGFR988-998 peptide as substrate
Excerpt: as §1, §2

EGF receptor = experiment: Substrate protection: EGF receptor tyrosine phosphorylation in COS1 cells expressing PTP1B forms (anti-pTyr Western blot); format: cell-based, Monkey; settings: COS1 cell lysates, anti-pTyr immunoblot (FIG. 4)
Experimental: FIG. 4 sets forth Western blots (WB) that show the level of tyrosine phosphorylation in the epidermal growth factor receptor (EGFR) upon expression of the wild-type and mutant PTP1Bs (4 μg plasmid/60 mm dish) in COS1 cells. Samples (50 μg total protein) were taken from the lysates of COS1 cells transfected with 4 μg of pJ3H plasmids expressing HA-tagged wild-type PTP1B, D181A, C215S, D181A/Q262A, or D181A/C215S. These samples were loaded into each lane for SDS-PAGE electrophoresis, and transferred onto a nitrocellulose membrane. The proteins on the membrane were first immunoblotted with anti-pTyr HRP conjugate (upper panel). The membrane was then stripped and re-probed with anti-hemagglutinin (anti-HA) HRP conjugate (lower panel).
The hemagglutinin-tagged (HA-tagged) full-length human wild-type PTP1B in pJ3H expression vector was a gift from Dr. Chemoff (30). The HA-tagged PTP1B mutants, C215S, D181A, D181A/C215S, and D181A/Q262A, were generated by PCR reactions, according to the standard procedure of the Quick-Change™ site-directed mutagenesis kit (Stratagene), using pJ3H-HA-PTP1B as a template. All mutations were verified by DNA sequencing.
Monkey kidney COS1 cells (ATCC: CRL-1650) were maintained in Dulbecco's modified Eagle's minimum essential medium (DMEM), supplemented with 10% fetal bovine serum (Life Technologies, Inc.), penicillin (50 units/ml), streptomycin (50 μg/ml), and L-glutamine (2 mM) under a humidified atmosphere containing 5% CO2. In transient transfection experiments, COS1 cells were inoculated at a density of 2×10^5 cells/60-mm dish, and grown overnight in DMEM containing 10% fetal bovine serum. Transfection was performed using LipoTAXI^R according to the manufacturer's recommendations (Stratagene, Cedar Creek, Tex.). Each transfection assay included 4 μg of purified DNA mixed with LipoTAXI^R in a 1:5 DNA:lipid ratio per 60-mm dish of cells. Following transfection, the cells were exchanged to normal culture medium, and maintained for 44 to 48 h at 37° C. and 5% CO2. The efficiency of transfection, as assessed by 5-bromo-4-chloro-3-indolyl-β-D galactoside (X-Gal) staining of pCMV-β-gal-transfected (β-Gal staining kit, Invitrogen) COS cells, was 25%.
The transfected cells (treated with or without EGF) were lysed with “lysis buffer” containing 50 mM Tris-HC1 (pH 7.5), 5 mM EDTA, 150 mM NaCl, 10 mM sodium phosphate, 10 mM sodium fluoride, 5 mM iodoacetic acid, 1 mM benzamidine, 1% Triton X-100, 10 μg/ml leupeptin, and 5 μg/ml Aprotinin. Lysate protein concentration was estimated using Bio-Rad protein assay reagent (Bio-Rad, Hercules, Calif.).
For immunoprecipitation, 1 mg of cell lysate was immunoprecipitated overnight with 30 μl of agarose-conjugated anti-hemagglutinin antibody at 4° C. Immunocomplexes were washed four times with the cell lysis buffer, and boiled for 5 min in SDS-PAGE sample buffer. Proteins in the cell lysate were separated by 8% SDS-PAGE under reducing conditions, according to the method of Laemmli (31), followed by blotting onto nitrocellulose membranes (Protran, Schleicher & Schuell). The nitrocellulose membranes were blocked with 5% non-fat dry milk in Tris-buffered saline/Tween (TBST) buffer (20 mM Tris-HC1, 150 mM NaCl, 0.1% Tween-20; pH 7.6) for 1 h at 25° C.
Thereafter, blots were incubated overnight with primary antibodies diluted in TBST containing 5% non-fat dry milk at 4° C. […]

[5] = test system: Ac-Asp-Ala-Asp-Glu-F2Pmp-Leu-NH2; settings: cited from earlier work
[6] = molecular target: T3, Ac-Asp-Ala-Asp-Glu-F2Pmp-Leu-NH2; experiment: ITC, 25 C, pH 7.0
Experimental: (§3) All isothermal titration calorimetry experiments were performed using an MCS Isothermal Titration Calorimetry System from Microcal Inc. (Northampton, Mass.). Experiments at pH 7.0 were conducted at 25° C., in 50 mM 3,3-dimethylglutarate buffer containing 1 mM DTT. The ionic strength of the buffer was adjusted to 0.15 M by addition of NaCl. Protein concentration in the calorimeter cell was 27-85 µM, while the ligand concentration in the syringe was 0.37-1 mM.
(§4) A typical titration curve and binding isotherm for the binding of D181A/Q262A to Ac-Asp-Ala-Asp-Glu-F_2Pmp-Leu-NH_2 is shown in FIG. 3. From curve-fitting of the binding isotherms, the stoichiometry for the binding of the peptide to D181A/Q262A was determined to be 1:1.

[7] = molecular target: T3, Ac-Asp-Ala-Asp-Glu-F2Pmp-Leu-NH2; experiment: ITC, 25 C, pH 7.0
Experimental: as §3
The PTP1B samples used in the isothermal titration calorimetry experiments were dialyzed completely against buffer. High-concentration stock solutions were prepared for ligands with distilled water, and adjusted to pH 7.0. […] Protein dilution during titration was determined by titration of buffer into the protein solution. […] The heat of ligand dilution was corrected by subtracting the average heat of injection after saturation.
as §4

[8] = molecular target: Ac-Asp-Ala-Asp-Glu-F2Pmp-Leu-NH2; experiment: Isothermal titration calorimetry, binding of PTP1B and mutants to F2Pmp peptide; settings: ITC, 25° C. and pH 7.0; data from this study
Experimental: FIG. 3 portrays calorimetric isothermal titration for the reaction of peptide Ac-Asp-Ala-Asp-Glu-F2Pmp-Leu-NH2 with PTP1B/D181A/Q262A. The upper graph depicts raw data for thirty 8-μl injections of the peptide (0.5 mM stock) into the isothermal cell containing 32 μM PTP1B/D181A/Q262A, at 4-min intervals and 25° C. Both the protein and the peptide were in 50 mM 3,3-dimethylglutarate buffer (I=0.15 M, pH 7.0) containing 1 mM DTT. The lower graph depicts an integration curve showing experimental points that were obtained by integration of the above peaks as plotted against the molar ratio of the peptide to PTP1B/D181A/Q262A within the reaction cell. The solid line corresponds to the best fit to the data according to the nonlinear, least-squares regression algorithm, ORIGIN (29).
as §3, with “Experiments at pH 7.0 were conducted at 25° C., in 50 mM 3,3-dimethylglutarate buffer containing 1 mM DTT.” left out, “μM,” for “µM,”
The PTP1B samples used in the isothermal titration calorimetry experiments were dialyzed completely against buffer. High-concentration stock solutions were prepared for ligands with distilled water, and adjusted to pH 7.0. Stock was diluted at least 26-fold with 50 mM 3,3-dimethylglutarate buffer before titration. Protein dilution during titration was determined by titration of buffer into the protein solution. […] The heat of ligand dilution was corrected by subtracting the average heat of injection after saturation.
The binding data were analyzed using ORIGIN software (29). Binding constant, K, and enthalpy change, ΔH, were used to calculate free energy change, ΔG, and entropy change, ΔS, according to equation [1]: −RTLnK=ΔG=ΔH−TΔS [1] where R is the gas constant and T is the absolute temperature.

Row | Molecule | Km (hydrolysis of the EGFR 988-998 peptide, 25 C, pH 7.0) [1] [µM] | Km, fold lower than wild-type enzyme [2] [fold] | kcat, fold lower than wild-type enzyme [2] [fold] | Km ([2]; 25° C. and pH 7.0) [µM] | kcat ([2]; 25° C. and pH 7.0) | Km, fold higher than PTP1B (wild-type) [3] [fold] | kcat, fold lower than PTP1B (wild-type) [3] [fold] | Km ([4]; 25° C. and pH 7.0) [µM] | kcat ([4]; 25° C. and pH 7.0) | level of pTyr in the EGF receptor / enhancement of EGF receptor phosphorylation (EGF receptor) | binding, fold tighter than the C215S mutant ([5]; F2Pmp peptide, previously determined (24)) [fold] | Kd ([5]; ITC, 25° C. and pH 7.0, data from (24)) [µM] | fold lower affinity than the C215S mutant [6] [fold] | fold lower affinity than the D181A mutant [6] [fold] | TΔS [7] [kJ/mol] | ΔG [7] [kJ/mol] | ΔH [7] [kJ/mol] | phosphatase activity [4] | Kd [8] [µM]
1 | PTP1B/D181A, catalytic domain (residues 1 to 321) (protein) MEMEKEFEQIDKSGSWAAIYQDIRHEASDFPCRVAKLPKNKNRNRYRDVSPFDHSRIKLHQEDNDYINASLIKMEEAQRSYILTQGPLPNTCGHFWEMVWEQKSRGVVMLNRVMEKGSLKCAQYWPQKEEKEMIFEDTNLKLTLISEDIKSYYTVRQLELENLTTQETREILHFHYTTWPAFGVPESPASFLNFLFKVRESGSLSPEHGPVVVHCSAGIGRSGTFCLADTCLLLMDKRKDPSSVDIKKVLLEMRKFRMGLIQTADQLRFSYLAVIEGAKFIMGDSSVQDQWKELSHEDLEPPPEHIPPPPRPPKRILEPHN | 56 | 30 | 320 | 80 ± 30 | (3.1 ± 0.3) × 10^−2 s^−1 | 22 | 920 | 56 ± 2 | (6.5 ± 0.2) × 10^−2 s^− | higher in cells expressing the D181A, rather than the C215S, mutant | 5 | 0.04 ± 0.01 | – | – | – | – | – | – | –
2 | PTP1B/D181A/C215E, catalytic domain (residues 1 to 321) (enzyme, human, UniProt P18031 1-321, looked up, range 1-321; Used in vitro (ITC)) MEMEKEFEQIDKSGSWAAIYQDIRHEASDFPCRVAKLPKNKNRNRYRDVSPFDHSRIKLHQEDNDYINASLIKMEEAQRSYILTQGPLPNTCGHFWEMVWEQKSRGVVMLNRVMEKGSLKCAQYWPQKEEKEMIFEDTNLKLTLISEDIKSYYTVRQLELENLTTQETREILHFHYTTWPAFGVPESPASFLNFLFKVRESGSLSPEHGPVVVHESAGIGRSGTFCLADTCLLLMDKRKDPSSVDIKKVLLEMRKFRMGLIQTADQLRFSYLAVIEGAKFIMGDSSVQDQWKELSHEDLEPPPEHIPPPPRPPKRILEPHN | – | – | – | – | – | – | – | – | – | – | – | – | 7 | 32 | -85.4 | -33.5 | -119 | no measurable activities | 1.3
